From the supplement of paper PMC7877785
± gives the uncertainty stated by the source.

Experiment: self-splicing fitness, log relative to wild type (ln ratio); higher = more splicing; Tetrahymena group I intron in knt gene, E. coli kanamycin selection, DiMSum; sequences stand for … in CUCUCU…GGAGGGAAAAGUUAUCAGGCAUGCACCUGGUAGCUAGUCUUUAAACCAAUAGAUUGCAUCGGUUUAAAAGGCAAGACCGUCAAAUUGCGGGAAAGGGGUCAACAGCCGUUCAGUACCAAGUCUCAGGGGAAACUUUGAGAUGGCCUUGCAAAGGGUAUGGUAAUAAGCUGACGGACAUGGUCCUAACCACGCAGCCAAGUCCUAAGUCAACAGAUCUUCUGUUGAUAUGGAUGCAGUUCACAGACUAAAUGUCGGUCGGGGAAGAUGUAUUCUUCUCAUAAGAUAUAGUCGGACCUCUCCUUAAUGGGAGCUAGCGGAUGAAGUGAUGCAACACUGGAGCCGCUGGGAACUAAUUUGUAUGCGAAAGUAUAUUGAUUAGUUUUGGAGUACUCGUGGUCG
Summary of the method: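 The eight P1ex-region nucleotides of an intron in the knt kanamycin-resistance gene on pET-22b(+) were all randomised and the library put into E. coli BL21(DE3). Six replicate transformations were grown overnight at 37°C or 30°C on LB agar with or without 25 μg/mL kanamycin, together with 100 μg/mL carbenicillin, 50 μM IPTG and 0.2% rhamnose. Colonies were pooled and amplicon-sequenced on an Illumina HiSeq 2500. Fitness from DiMSum is the error-weighted combination of wild-type-normalised replicate fold changes, kanamycin over none.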

Sequence	self-splicing fitness (ln) (37 °C)	self-splicing fitness (ln) (30 °C)
UCAGAGCAAUAUUACGCCAU	-1.91 ± 0.29	
UCAGAGCAAUAUUACGGCUA	-2.11 ± 0.24	-2.46 ± 0.28
UCAGAGCAAUAUUACGGGCG	-2 ± 0.25	-2.45 ± 0.17
UCAGAGCAAUAUUACGGGGG	-3.15 ± 0.35	-2.66 ± 0.23
UCAGAGCAAUAUUACGGGGU	-2.88 ± 0.27	-3.35 ± 0.23
UCAGAGCAAUAUUACGUAGU	-2.88 ± 0.35	-3.58 ± 0.43
UCAGAGCAAUAUUACGUGUU	-2.27 ± 0.17	-4.84 ± 0.27
UCAUAGCAAUAUUACGAACU	-2.08 ± 0.26	-2.36 ± 0.33
UCAUAGCAAUAUUACGACUA	-1.78 ± 0.24	-2.82 ± 0.29
UCAUAGCAAUAUUACGAGCA	-1.11 ± 0.23	-0.736 ± 0.2
UCAUAGCAAUAUUACGCAAA	-1.72 ± 0.3	-2.54 ± 0.25
UCAUAGCAAUAUUACGCCGA	0.277 ± 0.18	-0.67 ± 0.18
UCAUAGCAAUAUUACGCCGG	-0.72 ± 0.12	-1.25 ± 0.12
UCAUAGCAAUAUUACGCGAU		-1.9 ± 0.22
UCAUAGCAAUAUUACGCUGC	-2.52 ± 0.41	-3.13 ± 0.31
UCAUAGCAAUAUUACGGAAC		-4.02 ± 0.47
UCAUAGCAAUAUUACGGCCA	-0.442 ± 0.46	
UCAUAGCAAUAUUACGGGUG	-0.795 ± 0.085	-1.94 ± 0.093
UCAUAGCAAUAUUACGGGUU	-3.34 ± 0.25	-4.83 ± 0.36
UCAUAGCAAUAUUACGGUCG	-0.0517 ± 0.1	-1.14 ± 0.083
UCAUAGCAAUAUUACGUACU	-2.96 ± 0.19	-4.14 ± 0.19
UCAUAGCAAUAUUACGUCAG	-1.36 ± 0.15	-2.96 ± 0.18

Sequence	self-splicing fitness (ln) (37 °C)	self-splicing fitness (ln) (30 °C)
UCAUAGCAAUAUUACGUCCA	-0.442 ± 0.17	-1.07 ± 0.16
UCAUAGCAAUAUUACGUCCC		-2.19 ± 0.49
UCAUAGCAAUAUUACGUCGC	-2.78 ± 0.34	-2.62 ± 0.3
UCCAAGCAAUAUUACGAAAG	-3.23 ± 0.35	-2.45 ± 0.19
UCCAAGCAAUAUUACGACAG	-1.47 ± 0.26	-3.81 ± 0.35
UCCAAGCAAUAUUACGACCA	-0.935 ± 0.17	-1.63 ± 0.16
UCCAAGCAAUAUUACGAUAA	-0.704 ± 0.11	-2.01 ± 0.11
UCCAAGCAAUAUUACGCAAC	-3.04 ± 0.31	-4.2 ± 0.37
UCCAAGCAAUAUUACGCAGC	-2.89 ± 0.32	-2.73 ± 0.21
UCCAAGCAAUAUUACGCCAA	-0.487 ± 0.22	-2.68 ± 0.21
UCCAAGCAAUAUUACGCCGG	-0.578 ± 0.14	-1.53 ± 0.11
UCCAAGCAAUAUUACGCGCA	0.306 ± 0.079	0.131 ± 0.064
UCCAAGCAAUAUUACGCGCU	-1.52 ± 0.23	-2.67 ± 0.21
UCCAAGCAAUAUUACGGAUA	-1.22 ± 0.089	-2.57 ± 0.13
UCCAAGCAAUAUUACGGGAG	-2.9 ± 0.35	-2.57 ± 0.16
UCCAAGCAAUAUUACGGUCG	-0.886 ± 0.099	-2.37 ± 0.097
UCCAAGCAAUAUUACGUAAC	-1.41 ± 0.15	-3.57 ± 0.17
UCCAAGCAAUAUUACGUACA	-0.835 ± 0.12	-0.123 ± 0.1
UCCAAGCAAUAUUACGUUAA	-0.463 ± 0.1	-2.37 ± 0.12
UCCCAGCAAUAUUACGACUC	-1.91 ± 0.24	-3.89 ± 0.25
UCCCAGCAAUAUUACGAGCC	-1.96 ± 0.31	-2.16 ± 0.28
